# In patent US20180265915A1, “TRANSCRIPTION FACTOR DECOYS” (priority 2008, published 2018):
# Entries after “also recorded” stand apart in the source; their conditions may differ. {P} = phosphate
# B1: SA3 TFD: Sig dumbbell TFD from phosphorylated oligonucleotides SEQ ID NOs: 40 & 41 (nucleic acid, listed as Staphylococcus aureus)
# chain 1: CTTGGTTTTTCCAAGGAAGATTAGAAATTATTTCGATGGGTATATAATA
# chain 2: CCGTCTTTTTGACGGTATTATATACCCATCGAAATAATTTCTAATCTTC
# modifications: 5' {P}, sugars by position and backbone not given here; further chemistry not fully specified
# B2: WalR_TFD: dumbbell TFD containing the binding site for the WalR protein as in the lytM promoter, SEQ ID NOs: 48 & 49 (nucleic acid, listed as Staphylococcus aureus)
# chain 1: CTTGGTTTTTCCAAGTAATGAATGAGTTTAAAGCCCATGTAAAAGGGGTATCAGTAC
# chain 2: CCCTCTTTTTGAGGGGTACTGATACCCCTTTTACATGGGCTTTAAACTCATTCATTA
# modifications: dumbbell structure, further chemistry not given here
# B3: Scr_TFD: TFD containing a scrambled version of the WalR binding site, SEQ ID NOs: 46 & 47 (nucleic acid, listed as Staphylococcus aureus)
# chain 1: CTTGGTTTTTCCAAGGTAATATGACAAGATTGTAAATGACCTAGTTGAGAGATGCCA
# chain 2: CCCTCTTTTTGAGGGTGGCATCTCTCAACTAGGTCATTTACAATCTTGTCATATTAC
# modifications: dumbbell structure, further chemistry not given here
# Legend:
# [1] = system: S. aureus; assay: Growth of S. aureus transfected by electroporation under conditions of stress; format: cell-based, Staphylococcus aureus; conditions: BHI or LB media with 30 mM KOH, vs mock-electroporation or unrelated sequence
# Description: For example, stress response can be induced in a suitable strain e.g. S. aureus by growing in, e.g. LB media under conditions of stress, e.g. alkali conditions. For example LB media containing KOH, e.g. at 30 mM may be used. Untreated bacteria grow well in this media, due to the induction of the stress response by the alkali conditions, whereas those treated with the SA_sigB decoy, targeting the regulation of sigB which is a major part of the regulatory response to stress, grow poorly.
# Decoy polynucleotides were transfected into S. aureus by electroporation. Bacterial cells were prepared by standard methods. Briefy, cells were grown to early exponential phase in LB media at 37° C. as defined as reaching an Absorbance of 0.3 at […]. The cells were chilled to 4° C. and harvested by low speed centrifugation and washed three times in a similar volume of sterile, ice-cold 10% (v/v) glycerol. Finally the cells were resuspended in a tenth of their original volume in 10% glycerol. […] 200 μl of cells were aliquoted into wells of a 96 well plate that was incubated at 37° C. with moderate shaking, growth was monitored by measuring absorbance.
# [2] = system: E. coli; assay: FabB TFD growth assay with cerulenin in LB, polymixin co-transfectant; format: cell-based, Escherichia coli
# Description: For example, a FabB decoy which targets the regulation of genes essential for fatty acid synthesis may be tested against suitable strain, e.g. E. coli grown in e.g. Luria-Bertani LB media (1% [w/v] Bacto-tryptone, 0.5% [w/v] Yeast extract, 1% [w/v] NaCl) in the presence of an antibiotic which acts on the process of fatty acid synthesis, e.g. Cerulenin.
# The effect of TFDs on the growth of E. coli bacterial cultures was measured as described in Example 4.1 with a few modifications: the media used was LB; the co-transfectant used was 40 nM polymixin, rather than gramicidin; the media was also supplemented with 10 μg/ml Cerulenin (CER). CER is an antibiotic that acts on fatty acid synthesis.
# [3] = system: K. pneumoniae; assay: KP_Sig TFD growth assay in vitro; format: cell-based, Klebsiella pneumoniae; conditions: PCR_TFD, transfected using a cell penetrating peptide
# Excerpt: Cells were transfected as described in Example 13, using a cell penetrating peptide. […] The two controls used were: untreated cells (K. pneumoniae) and a control TFD consisting of a scrambled sequence.
# [4] = system: Staphylococcus aureus EMRSA 16; assay: Mouse sepsis model, tissue burden study; format: in vivo
# Description: The mouse sepsis study was performed by Euprotec (UK). Mice used in this study, male CD1 mice were supplied by Charles River (Margate UK) and were specific pathogen free (16-18 g at delivery). All mice weighed 22-25 g at the beginning of the experiment.
# For the tissue burden study, animals were treated in groups of 8 mice per treatment group, therefore 48 in total for the study. 2×10 ml cultures of Staphylococcus aureus EMRSA 16 were prepared and placed on orbital shaker (220 rpm) overnight at 37° C. The following day, the Staphylococcus aureus EMRSA 16 cultures were removed from shaker, pelleted and washed twice before being resuspended in saline to an OD of 0.132 (1.5×10^8 cfu/ml). This stock solution of Staphylococcus aureus EMRSA 16 was then further diluted 1:1.5 in saline (1×10^8 cfu/ml) i.e. 2.0×10^7 bacteria per mouse. 48 mice were then infected with 0.2 ml of the 1.0×10^8/mL suspension. The number of Staphylococcus aureus EMRSA 16 bacteria per mL in the remainder of the suspensions after inoculation was also counted to confirm infection load. Mice were treated 1, 9 and 17 hours post infection with either compound or vehicle, though vancomycin was only administered after 1h. The treatments were as previously a mixture of TFD/DOTAP/Lysostaphin using a concentration of InM/kg TFD in a 5:1 molar ratio with DOTAP and 63 μg/kg Lysostaphin. After 25 hours post infection all animals were weighed and then euthanized. The kidneys were immediately removed and homogenised in ice cold sterile phosphate buffered saline+0.05% Tween 80. Organ homogenates were quantitatively cultured onto CLED agar and incubated at 37° C. for up to 3 days and colonies counted. The data from the culture burdens was analysed by the Kruskal-Wallis test using Stats Direct.
# [5] = system: EMRSA15; assay: DB-TFD growth assay on EMRSA15 with Lysostaphin co-treatment; format: cell-based, Staphylococcus aureus; conditions: 10 nM DB-TFD; 0.5 to 2.5 pg/ml Lysostaphin
# Description: Growth assays were performed as described for Example 7.1 with the sole difference being that the media was supplemented with between 0.5 and 2.5 pg/ml Lysostaphin instead of Gramicidin. Lysostaphin is a lysozyme-like enzyme that is specific for the walls of S. aureus.
# [6] = system: clinically-isolated MRSA strain MRSA-5; assay: Dumbbell Sig TFD growth assay on a clinically-isolated MRSA strain; format: cell-based, Staphylococcus aureus; conditions: 10 nM TFD, dumbbell configuration
# Description: A growth assay was performed as described in Example 5.1 using the Sig TFD in its dumbbell configuration and a clinically-isolated MRSA strain.
# [7] = system: EMRSA-16; assay: WalR_TFD in vitro growth and viable count assays on EMRSA-16; format: cell-based, Staphylococcus aureus; conditions: for effect on growth of EMRSA-16 in vitro: 1 nM TFD, DOTAP, Lysostaphin, BHI
# Description: S. aureus EMRSA16 cultures were grown and maintained in BHI media (Becton Dickenson). Frozen stocks were prepared by mixing equal volumes of a culture in early exponential growth (OD of 0.3 at A600) with 50% glycerol and freezing at −80° C.
# TFD-DOTAP complexes were formed by mixing 1 ug of TFD with 2 μg of DOTAP (Roche) and incubating at room temperature for 10 min on the bench. The TFD complex was then mixed with inoculated medium supplemented with 10 ng/ml Lysostaphin (Sigma; L9043), aliquoted into 96 well flat-bottomed plates and growth was analysed by culturing at 37° C. with shaking in a BioTek plate reader.
# EMRSA-16, an MRSA strain endemic in UK hospitals, was used in the study (Cox, Mallaghan et al. 1995). TFDs were mixed with a commercially available lipid formulation, DOTAP, and mixed with media inoculated with EMRSA-16 and Lysostaphin. Lysostaphin is a lysozyme agent that acts on the walls of S. aureus, use of it in this experiment was to thin the outer peptidoglycan layer of the bacteria and allow the TFD to transfect the cell following fusion of the DOTAP carrier with the exposed inner membrane of the bacterium. […] The bacteria that were not killed by WalR_TFD treatment were sub-cultured in order to determine whether there was any incidence of resistance. The process was repeated a total of four times and both the reduction in viable counts (FIG. 17B) and in vitro growth curves were recorded (FIG. 17C, black squares: bacteria in fourth passage).
# In order to determine whether TFDs killed bacteria on contact or needed prolonged exposure to work, EMRSA-16 were transfected with 1 nM WalR_TFD/DOTAP complex and incubated for 30 minutes before being microdiluted into fresh media, without any TFD complexes or Lysostaphin.
# [8] = statistical analysis of in vivo results
molecule,measurement,setting,value
"LytM TFD: YycG/YycF binding site in LytM promoter, SEQ ID NO: 7 (DNA GCTATTTTGTAATGACAATGTAATGAGTTTAGTAAAAA; transcription factor decoy, made by PCR or oligonucleotide ligation, further chemistry not given here; listed as Staphylococcus aureus)",growth of S. aureus under conditions of stress,[1],capable of slowing the growth
"C/C=C/C/C=C/CCC(=O)[C@H]1O[C@H]1C(N)=O [cerulenin, reference compound]",effect of cerulenin on growth of E. coli,[2]; 10 μg/ml Cerulenin,no noticeable effect on growth
same,cerulenin concentration at which it begins to inhibit cell growth,[2]; in the presence of the control TFD,20 µg/mL
"KP_Sig: sigma 54 binding site from the K. pneumoniae glnA promoter, SEQ ID NO: 59, in a PCR_TFD (DNA TGGCACAGATTTCGCT; listed as DNA, chemistry not fully specified; listed as Klebsiella pneumoniae)",effect on K. pneumoniae cell growth in vitro,[3],prevented cell growth in vitro
same,effect on K. pneumoniae cell growth in vitro,[3]; listed as KP_Sig TFD,kills K. pneumoniae in vitro
"CN[C@H](CC(C)C)C(=O)N[C@H]1C(=O)N[C@@H](CC(N)=O)C(=O)N[C@H]2C(=O)N[C@H]3C(=O)N[C@H](C(=O)N[C@H](C(=O)O)c4cc(O)cc(O)c4-c4cc3ccc4O)[C@H](O)c3ccc(c(Cl)c3)Oc3cc2cc(c3O[C@@H]2O[C@H](CO)[C@@H](O)[C@H](O)[C@H]2O[C@H]2C[C@](C)(N)[C@H](O)[C@H](C)O2)Oc2ccc(cc2Cl)[C@H]1O [Vancomycin, vancomycin, reference compound]","Kruskal-Wallis all pairwise comparisons (Dwass-Steel-Chritchlow-Fligner) of kidney burden, versus Vehicle",[4]; [8],0.0173
B1,inhibition of bacterial growth of EMRSA15,[5],capable of inhibiting bacterial growth
same,inhibition of cell growth of clinically-isolated MRSA strain,[6],repress the growth
B2,inhibition of bacterial growth of EMRSA15,[5],prevents growth of EMRSA15
same,effect on growth of EMRSA-16 in vitro,[7],prevented growth of EMRSA-16
same,growth after limited contact,"[7]; 1 nM, incubated 30 minutes then diluted into fresh media without TFD or Lysostaphin, followed 48 hours",unable to grow; also recorded: no growth was observed
same,"total viable counts, reduction in number of living cells",[7]; after in vitro growth experiment,reduced the number of living cells by five-fold orders of magnitude
same,bacteriocidal activity against MRSA,[7]; in vitro and in vivo,rapid bacteriocidal activity at nanomolar concentrations
same,development of resistance to TFD-mediated killing,"[7]; surviving bacteria sub-cultured and re-treated, repeated rounds",No resistance mechanism has been detected; also recorded: no evidence for the development of a resistance mechanism
same,reduction in kidney burden of EMRSA-16,"[4]; mice, systemic injection 1, 9 and 17 hours post infection, 1 nM TFD complex, compared to Scr_TFD control",as effective as vancomycin in killing EMRSA-16
same,"Kruskal-Wallis all pairwise comparisons (Dwass-Steel-Chritchlow-Fligner) of kidney burden, versus Vancomycin",[4]; [8],0.2549
same,"Kruskal-Wallis all pairwise comparisons (Dwass-Steel-Chritchlow-Fligner) of kidney burden, versus Vehicle",[4]; [8],0.0062
B3,inhibition of bacterial growth of EMRSA15,[5],no effect
same,effect on growth of EMRSA-16 in vitro,[7],no detectable effect on bacterial growth
same,"Kruskal-Wallis all pairwise comparisons (Dwass-Steel-Chritchlow-Fligner) of kidney burden, versus 1 nM WalR_TFD",[4]; [8],0.0043
same,"Kruskal-Wallis all pairwise comparisons (Dwass-Steel-Chritchlow-Fligner) of kidney burden, versus Vancomycin",[4]; [8],0.0062
same,"Kruskal-Wallis all pairwise comparisons (Dwass-Steel-Chritchlow-Fligner) of kidney burden, versus Vehicle",[4]; [8],0.7804
